Data taken from patent US7303876B2 (Applera Corporation, priority 2000, dated 2007).

Columns and labels:
[1] = system: BoDipy-labeled Casein Conjugate; assay: Proteinase K digestion of BoDipy-labeled Casein Conjugate (fluorescence); assay type: biochemical; conditions: one hour, 60° C.
Text: An assay was developed to measure the activity of Proteinase K with BoDipy-labeled Casein Conjugate (Enz Check Protease Assay Kit, Product number E6638; Molecular Probes, Eugene, Oreg.). The concentration of fluorescent BoDipy moieties in this derivatized conjugate is sufficiently high so that when the protein is intact, the fluorescence of individual moieties is quenched. Upon digestion of the derivatized casein by a protease, however, peptides containing a lower number of BoDipy dye molecules are released, resulting in an increase in fluorescence. To determine an initial dynamic range for an assay, BoDipy-labeled Casein was digested for one hour with a decreasing concentration of Proteinase K as follows. […] Following a one hour incubation at 60° C. with mixing, 100 μL aliquots were transferred to a 96-well optical plate (MicroAmp® Optical 96-Well Reaction Plate, Applied Biosystems, Foster City, Calif.) and the fluorescence was measured in an ABI Prism 7700 spectrophotometer (Applied Biosystems). The background fluorescence was determined by incubating the substrate in buffer without Proteinase K.

[2] = system: slices of liver; assay: Maceration of liver slices by reaction compositions at 65° C.; conditions: 65° C.; for maceration of liver slice: 1 mg/ml Proteinase K, No Additives
Description: Initially, a series of reaction compositions were analyzed for their ability to disaggregate a biological sample, e.g., slices of liver. These reaction compositions comprised 100 mM Tris, pH 8.0, 20 mM dithiothreitol (DTT), and optionally,1 mg/ml Proteinase K, surfactants (e.g., cationic, nonionic and anionic detergents), chaotropes, or the additive 1-methyl-2-pyrollidinone (Sigma). Each reaction compositions was placed in a tube with a slice of liver and then incubated at 65° C. The tubes were observed periodically to determine which reaction compositions were able to efficiently macerate the sample.

[3] = target: T1, Proteinase K (Parengyodontium album, UniProt P06873); assay: Effect of surfactants on Proteinase K digestion of dye-labeled casein substrate; assay type: biochemical; conditions: water, 0 minutes incubation, ambient temperature
T1 construct: purchased Ambion 2546
Description: To test the effect of cationic surfactants on the activity of Proteinase K, a series of reaction compositions were prepared as follows. Reaction compositions comprised: Casein BoDipy conjugate (1 μg, 10 ng/μL), 10 mM Tris, pH 8, 20 mM CaCl2, 1% surfactant (shown in Table 2 below) and a dilution series of Proteinase K at concentrations of 20 μg/ml, 5 μg/ml, 1.25 μg/ml, 0.31 μg/ml, 0.078 μg/ml, 0.02 μg/ml and 0.005 μg/ml. […] Reaction tubes were incubated at 60° C. in a 96-well optical plate (MicroAmp® Optical 96-Well Reaction Plate, Applied Biosystems) and the amount of released fluorescence was measured at the indicated time points using an ABI Prism 7700.

B1: Proteinase K: protease (subtilisin), Ambion (protein, UniProt P06873 106-384, looked up)
Proteinase K: AAQTNAPWGLARISSTSPGTSTYYYDESAGQGSCVYVIDTGIEASHPEFEGRAQMVKTYYYSSRDGNGHGTHCAGTVGSRTYGVAKKTQLFGVKVLDDNGSGQYSTIIAGMDFVASDKNNRNCPKGVVASLSLGGGYSSSVNSAAARLQSSGVMVAVAAGNNNADARNYSPASEPSVCTVGASDRYDRRSSFSNYGSVLDIFGPGTSILSTWIGGSTRSISGTSMATPHVAGLAAYLMTLGKTTAASACRYIADTANKGDLSNIPFGTVNLLAYNNYQA
B1 was tested, and the “lowest Proteinase K concentration with released fluorescence detected” value [1] was 50 ng/mL, the fluorescence signal plateau ([1]; 10 μg/ml BoDipy-labeled Casein Conjugate) was “around 30,000 fluorescence units” and the “maceration of liver slice” value ([2]; 2-5 hr) was 0%. For the same molecule, the “maceration of liver slice” value ([2]; 16-24 hr) was 75%, the “ability to macerate the liver sample (in words)” value [2] was “effectively digest the liver tissue, but only after extended incubation” and the “proteolytic activity of Proteinase K without surfactant” value [3] was “high proteolytic activity”.
